# Source: patent US20160369010A1 (AstraZeneca / MedImmune, published 2016)
# Read-outs that look alike come from different tables or passages of the source.
# T1: Flag/His tagged human CD86 (in-house) (human, UniProt P42081 24-247, limits assumed)
# T1 sequence (looked up): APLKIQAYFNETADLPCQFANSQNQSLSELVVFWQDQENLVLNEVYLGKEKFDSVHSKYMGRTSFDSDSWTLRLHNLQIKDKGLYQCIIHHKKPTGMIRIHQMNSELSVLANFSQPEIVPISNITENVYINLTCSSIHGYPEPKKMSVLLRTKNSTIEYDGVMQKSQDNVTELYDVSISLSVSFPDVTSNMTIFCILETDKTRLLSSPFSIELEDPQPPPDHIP
# Columns and labels:
# [1] = molecular target: T2, Recombinant human Avi_PCSK9_Flag_His (human, UniProt Q8NBP7 31-692, biotinylated in the HTRF and LDL-R competition assays)
# [2] = molecular target: T2, Recombinant human Avi_PCSK9_Flag_His; test: HTRF epitope competition: unlabelled compound titrated against a DyLight 650-labelled anti-PCSK9 antibody for biotinylated human PCSK9; % specific binding [panel C]
# Protocol: (§1) PCSK9 activity of each peptide-antibody fusions was assessed using Homogenous Time Resolved Fluorescence (HTRF) epitope competition assays.
# (§2) For the assay all samples and reagents were prepared in assay buffer containing 1X Phosphate Buffered Saline, 0.1% BSA (Sigma A9576) and 0.4M Potassium Fluoride. Test samples of peptide-antibody fusions or control antibodies were prepared in 384 well polypropylene plates by 3-fold serial dilutions. […] Delta F% was then calculated using the following equation.
# [3] = molecular target: T2, Recombinant human Avi_PCSK9_Flag_His; test: HTRF epitope competition: unlabelled compound titrated against a DyLight 650-labelled anti-PCSK9 antibody for biotinylated human PCSK9; % specific binding [panel B]
# Protocol: as §1, §2
# [4] = molecular target: T2, Recombinant human Avi_PCSK9_Flag_His; test: SPR (Biacore 2000)
# human GLP-1 receptor = human GLP-1 receptor (human, UniProt P43220 24-463); test: cell-based or functional assay
# [5] = molecular target: T1, Flag/His tagged human CD86 (in-house); test: DELFIA TRF, antigen coated at 10 µg/mL
# [6] = molecular target: T3, recombinant human B7-H1 (in house) (human, UniProt Q9NZQ7 19-238, limits assumed); test: binding ELISA on coated human B7-H1 (5 ug/mL), compound at 10 ug/mL, detection with cryptate labelled Fc specific anti human IgG
# Protocol: (§3) Binding ELISA was performed by coating human B7-H1 (in house) at 5 ug/mL in 1× Phosphate Buffered Saline. After plate blocking with 1×Phosphate Buffered Saline, 3% skimmed milk, compounds were added at 10 ug/mL in PBS and incubated for 2 h at room temperature before washing.
# [7] = molecular target: T3, recombinant human B7-H1 (in house); test: binding ELISA on coated human B7-H1 (5 ug/mL), compound at 10 ug/mL, detection with cryptate labelled Fc specific anti human IgG; positive control
# Protocol: as §3
# [8] = molecular target: T2, Recombinant human Avi_PCSK9_Flag_His; test: HTRF epitope competition: unlabelled compound titrated against a DyLight 650-labelled anti-PCSK9 antibody for biotinylated human PCSK9; % specific binding [panel A]
# Protocol: as §1, §2
# [9] = molecular target: T2, Recombinant human Avi_PCSK9_Flag_His; test: HTRF epitope competition: unlabelled compound titrated against a DyLight 650-labelled anti-PCSK9 antibody for biotinylated human PCSK9; % specific binding [panel B]; remark: listed apart in the source
# Protocol: as §1, §2
# [10] = molecular target: T2, Recombinant human Avi_PCSK9_Flag_His; test: HTRF epitope competition: unlabelled compound titrated against a DyLight 650-labelled anti-PCSK9 antibody for biotinylated human PCSK9; % specific binding [panel F]
# Protocol: as §1, §2
# [11] = molecular target: T2, Recombinant human Avi_PCSK9_Flag_His; test: binding ELISA on coated human PCSK9 (10 ug/mL), single concentration, detection with cryptate labelled Fc specific anti human IgG
# [12] = molecular target: T2, Recombinant human Avi_PCSK9_Flag_His; test: HTRF epitope competition: unlabelled compound titrated against a DyLight 650-labelled anti-PCSK9 antibody for biotinylated human PCSK9; % specific binding [panel E]
# Protocol: as §1, §2
# [13] = molecular target: T2, Recombinant human Avi_PCSK9_Flag_His; test: HTRF epitope competition: unlabelled compound titrated against a DyLight 650-labelled anti-PCSK9 antibody for biotinylated human PCSK9; % specific binding [panel C]; remark: listed apart in the source
# Protocol: as §1, §2
# T3 sequence (Q9NZQ7 19-238 limits assumed): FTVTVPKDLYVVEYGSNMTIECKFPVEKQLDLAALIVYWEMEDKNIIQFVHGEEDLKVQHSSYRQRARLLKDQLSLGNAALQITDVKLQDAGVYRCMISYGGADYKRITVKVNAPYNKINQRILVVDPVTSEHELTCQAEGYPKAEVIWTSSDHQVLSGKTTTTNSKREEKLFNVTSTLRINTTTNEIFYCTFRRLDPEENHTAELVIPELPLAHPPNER
# Chain of human GLP-1 receptor (P43220 24-463): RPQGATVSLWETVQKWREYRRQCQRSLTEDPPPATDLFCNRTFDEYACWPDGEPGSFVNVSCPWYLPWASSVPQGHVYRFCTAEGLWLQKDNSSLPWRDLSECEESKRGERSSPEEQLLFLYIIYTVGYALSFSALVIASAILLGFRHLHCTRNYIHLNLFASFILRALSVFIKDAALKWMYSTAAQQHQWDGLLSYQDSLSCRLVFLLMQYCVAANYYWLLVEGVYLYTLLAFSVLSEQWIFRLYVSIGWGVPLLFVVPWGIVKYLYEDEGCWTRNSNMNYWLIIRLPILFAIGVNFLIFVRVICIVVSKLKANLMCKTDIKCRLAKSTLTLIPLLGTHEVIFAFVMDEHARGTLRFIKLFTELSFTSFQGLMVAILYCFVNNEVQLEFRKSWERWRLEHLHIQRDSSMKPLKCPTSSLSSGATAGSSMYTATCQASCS
binder,measurement,setting,value
PC9#7 GLP-1 analogue light chain fusion (antibody) VH: QVQLVQSGAEVKKPGESLKISCKGSGYSFTNYWISWVRQMPGKGLEWMGIIYPGDSYTNYSPSFQGQVTISADKSISTAYLQWSSLKASDTAMYYCARDYWYKPLFDIWGQGTLVTVSS VL: HGEGTFTSDVSSYLEEQAAKEFIAWLVKGGGGGGGSGGGGSGGGGSADIVMTQSPDSLAVSLGERATINCRSSQSVLYSSNNKNYLAWYQQKPGQPPKLLIYWASTRESGVPDRFSGSGSGTDFTLTISSLQAEDVAVYYCQQYSSFPITFGQGTKVEIK,IC50 (read off the curve),[1],~1 nM
"PC9#3 GLP-1 analogue heavy chain fusion (antibody, IgG1, IgG1-TM; descriptive name; also called heavy chain peptide antibody fusion of PC9#3) VH: HGEGTFTSDVSSYLEEQAAKEFIAWLVKGGGGGGGSGGGGSGGGGSAEVQLVESGGGLVQPGGSLRLSCAASGFTFNNYAMNWVRQAPGKGLDWVSTISGSGGTTNYADSVKGRFIISRDSSKHTLYLQMNSLRAEDTAVYYCAKDSNWGNFDLWGRGTLVTVSS VL: not shown",IC50 (read off the curve),[2],~0.09 nM
"PC9#2_GLP-1_VL (antibody, IgG1, IgG1-TM; also called light chain peptide antibody fusion of PC9#2) VH: QVQLVQSGAEVKKPGASVKVSCKASGYTFTSYYMHWVRQAPGQGLEWMGEIHPSGGRTNYNEKFKSRVTMTRDTSTSTVYMELSSLRSEDTAVYYCARERPLYASDLWGQGTTVTVSS VL: HGEGTFTSDVSSYLEEQAAKEFIAWLVKGGGGGGGSGGGGSGGGGSADIQMTQSPSSLSASVGDRVTITCKASQDVHTAVAWYQQKPGKAPKLLIYHASYRYTGVPSRFSGSGSGTDFTFTISSLQPEDIATYYCQQRYSLWRTFGQGTKLEIK",IC50 (read off the curve),[3],~0.4 nM
same,"x change of Kd, PC9#2_GLP1 against PC9#2",[4],2.7 fold
same,x change (against GLP1-Fc),human GLP-1 receptor,2.4 fold
HS9_DSB7_V19A (antibody) VH: QVQLVQSGAEVKKPGASVKVSCKASGYTFTSYYMHWVRQAPGQGLEWMGEISPSGGSTSYNQKFQGRVTMTRDTSTSTVYMELSSLRSEDTAVYYCARERPLYASDLWGQGTTVTVSS VL: HGEGTFTSDLSKQMEEECARLFIEWLKNGGPSSGAPPPGCGGGGGSGGGGSGGGGSADIQMTQSPSSLSASVGDRVTITCQASQDVKTAVAWYQQKPGKAPKLLIYSASYRYTGVPSRFSGSGSGTDFTFTISSLQPEDIATYYCQQRYSLWRTFGQGTKLEIK,binding result,[5],no binding (tested: 25 µg/mL)
"Fusion 2.7A4 DSB7 V19A (antibody, Peptide-linker on the light chain of the anti-B7-H1 antibody) VH: EVQLVESGGGLVKPGGSLRLSCAASGFTFSTYSMNWVRQAPGKGLEWVSSISSSGDYIYYADSVKGRFTISRDNAKNSLYLQMNSLRAEDTAVYYCARDLVTSMVAFDYWGQGTLVTVSS VL: HGEGTFTSDLSKQMEEECARLFIEWLKNGGPSSGAPPPGCGGGGGSGGGGSGGGGSASYELTQPPSVSVSPGQTARITCSGDALPQKYVFWYQQKSGQAPVLVIYEDSKRPSGIPERFSGSSSGTMATLTISGAQVEDEADYYCYSTDRSGNHRVFGGGTKLTVL",binding result,[6],binds
"anti-B7-H1 antibody 2.7A4 (antibody, V domains shown) VH: EVQLVESGGGLVKPGGSLRLSCAASGFTFSTYSMNWVRQAPGKGLEWVSSISSSGDYIYYADSVKGRFTISRDNAKNSLYLQMNSLRAEDTAVYYCARDLVTSMVAFDYWGQGTLVTVSS VL: SYELTQPPSVSVSPGQTARITCSGDALPQKYVFWYQQKSGQAPVLVIYEDSKRPSGIPERFSGSSSGTMATLTISGAQVEDEADYYCYSTDRSGNHRVFGGGTKLTVL",binding result,[7],binds
"PC9#1 GLP-1 analogue heavy chain fusion (antibody, IgG1, IgG1-TM; peptide-linker at the N-terminus of VH; also called heavy chain peptide antibody fusion of PC9#1) VH: HGEGTFTSDVSSYLEEQAAKEFIAWLVKGGGGGGGSGGGGSGGGGSAQVQLVQSGAEVKKPGASVKVSCKASGYTFTSYYMHWVRQAPGQGLEWMGEISPFGGRTNYNEKFKSRVTMTRDTSTSTVYMELSSLRSEDTAVYYCARERPLYASDLWGQGTTVTVSS VL: DIQMTQSPSSLSASVGDRVTITCRASQGISSALAWYQQKPGKAPKLLIYSASYRYTGVPSRFSGSGSGTDFTFTISSLQPEDIATYYCQQRYSLWRTFGQGTKLEIK",IC50 (read off the curve),[8],~0.06 nM
"PC9#2 GLP-1 analogue heavy chain fusion (antibody, IgG1, IgG1-TM; descriptive name; also called heavy chain peptide antibody fusion of PC9#2) VH: HGEGTFTSDVSSYLEEQAAKEFIAWLVKGGGGGGGSGGGGSGGGGSAQVQLVQSGAEVKKPGASVKVSCKASGYTFTSYYMHWVRQAPGQGLEWMGEIHPSGGRTNYNEKFKSRVTMTRDTSTSTVYMELSSLRSEDTAVYYCARERPLYASDLWGQGTTVTVSS VL: DIQMTQSPSSLSASVGDRVTITCKASQDVHTAVAWYQQKPGKAPKLLIYHASYRYTGVPSRFSGSGSGTDFTFTISSLQPEDIATYYCQQRYSLWRTFGQGTKLEIK",IC50 (read off the curve),[9],~0.7 nM
"PC9#6 GLP-1 analogue light chain fusion (antibody, IgG1, IgG1-TM; descriptive name; also called light chain peptide antibody fusion of PC9#6) VH: QVQLVQSGAEVKKPGSSVKVSCKASGGTFNSHAISWVRQAPGQGLEWMGGINPILGIANYAQKFQGRVTITADESTSTAYMELSSLRSEDTAVYYCARHYEIQIGRYGMNVYYLMYRFASWGQGTLVTVSS VL: HGEGTFTSDVSSYLEEQAAKEFIAWLVKGGGGGGGSGGGGSGGGGSADIQMTQSPSSLSASVGDRVTITCRASQGIRSALNWYQQKPGKAPKLLIYNGSTLQSGVPSRFSGSGSGTDFTLTISSLQPEDFAVYYCQQFDGDPTFGQGTKVEIK",binding result,[10],binds
"PC9#6_DSB7_V19A (antibody, IgG1, IgG1-TM) VH: QVQLVQSGAEVKKPGSSVKVSCKASGGTFNSHAISWVRQAPGQGLEWMGGINPILGIANYAQKFQGRVTITADESTSTAYMELSSLRSEDTAVYYCARHYEIQIGRYGMNVYYLMYRFASWGQGTLVTVSS VL: HGEGTFTSDLSKQMEEECARLFIEWLKNGGPSSGAPPPGCGGGGGSGGGGSGGGGSADIQMTQSPSSLSASVGDRVTITCRASQGIRSALNWYQQKPGKAPKLLIYNGSTLQSGVPSRFSGSGSGTDFTLTISSLQPEDFAVYYCQQFDGDPTFGQGTKVEIK",binding result,[11],no binding (tested: 100 ug/mL)
"PC9#5 GLP-1 analogue light chain fusion (antibody, IgG1, V domains shown, IgG1-TM; descriptive name; also called light chain peptide antibody fusion of PC9#5) VH: EMQLVESGGGLVQPGGSLRLSCAASGFTFSSHWMKWVRQAPGKGLEWVANINQDGSEKYYVDSVKGRFTISRDNAKNSLFLQMNSLRAEDTAVYYCARDIVLMVYDMDYYYYGMDVWGQGTTVTVSS VL: not shown",IC50 (read off the curve),[12],~6 nM
"PC9#3 GLP-1 analogue light chain fusion (antibody, IgG1, IgG1-TM; descriptive name; also called light chain peptide antibody fusion of PC9#3) VH: EVQLVESGGGLVQPGGSLRLSCAASGFTFNNYAMNWVRQAPGKGLDWVSTISGSGGTTNYADSVKGRFIISRDSSKHTLYLQMNSLRAEDTAVYYCAKDSNWGNFDLWGRGTLVTVSS VL: HGEGTFTSDVSSYLEEQAAKEFIAWLVKGGGGGGGSGGGGSGGGGSADIVMTQSPDSLAVSLGERATINCKSSQSVLYRSNNRNFLGWYQQKPGQPPNLLIYWASTRESGVPDRFSGSGSGTDFTLTISSLQAEDVAVYYCQQYYTTPYTFGQGTKLEIK",IC50 (read off the curve),[13],~0.4 nM
